Assay: yeast display, Sf9 membrane polyspecificity reagent, FACS + sequencing; frameworks hold sequencing errors
Summary of the method: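 In a synthetic yeast display library (Saccharomyces cerevisiae BJ5465), nanobody expression was induced with galactose for 36–48 hours. FACS gates were set low and high (top ~1%) using anti-HA fluorescence for expression and streptavidin fluorescence for binding of the Sf9 membrane reagent. Each polyreactivity label is drawn from the gate of origin.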

Row | Sequence | polyreactivity (PSR sort gate)
1 | QVQLVESGGGLVQAGGSLRLSCAASGFIFSFYAMGWYRQAPGKERELVAAITSSGATTYYADSVKGRFTISRDNAKNTVYLQMNSLKPEDTAVYYCNAVYRRDTGYYRYYYWGQGTQVTVSS | high polyreactivity
2 | QVQLVESGGGLVQAGGSLRLSCAASGFTFTRYAMGWYRQAPGKERELVAAISRSGTSTYYADSVKGRFTISRDNAKNTVYLQMNSLKPEDTAVYYCAAYFGTTGRYALYDYWGQGTQVTVSS | high polyreactivity
3 | QVQLVESGVGLVQAGGSLRLSCAASGFTFPYYAMGWYIQAPGKERELVAAISSGGRTNYADSVKGRFTISRDNAKNTVYLQMNSLKPEDTAVYDCATRSYVFAWEFNYWGQVTQVTVSS | high polyreactivity
4 | QVQLVESGGGLVQAGGSLRLSCAASGSIFVIYAMGWYRQAPGKERELVAAISWNGGSTFYADSVKGRFTISRDNAKNTVYLQMNSLKPDDTAVYDCNTVASYYRWKSYYYWGQGTQVTVSS | high polyreactivity
5 | QVQLVESGGGLVQAGGSLRLSCAASGFTFSENTMGWYRQAPGKERELVADIDSGGSTYYADSVKGRFTISRDNAKNTVYLQMNSLKPEVTAVYYCAIDYHVVGGQTFLFEYDYWGQGTQVTVSS | low polyreactivity
6 | QVLVVESGGCLVQAVGSLRLSCAAYGITCSRNALGWYRLAAGKERELVATITSGGSTNYADSVKGRFTISRDNAKNTVYLQMMSLKPEDPAVYFCNAVWNTFISGRSYDYWGQVTQVTVSS | low polyreactivity
7 | QVQLVESGGGLVQAGGSLRLSCAASGFTFAYYAMGWYRQAPRKESELVAGISWRGGRTYYADSVKGRFTISRDNAKNTVYLQMNSLKPEDTAVYYCAKQPGNFGRFDYWGQGTQVTVSS | high polyreactivity
8 | QVQLVESGGGLVQAGGSLRLSCAASGRTSRSYTMGWYRQAPGKERELVAAITRGGRTYYADSVKGRFTISRDNAMNTVYLQMNSLKPEDTAVYYCATDRVQSYGYWGQGTQVTVSS | low polyreactivity
9 | QVHLLESGGGLLQAGGSLLISCAAAGRTFGQNAMGWSRQAPGKARELVASIRSGGITDYADSVKGRYTISRDNAKYSVYLQMNSLKPEDTAVYYCNAEGVWWSTRYDSWGQGTQVTVSS | low polyreactivity
10 | QVQLVESGGGLVQAGGSLRLSCAASGIIFRYYAMGWYRQAPGKEREFVAAINYSGGSTYYADSVKGRFTISRDNAKYSVYLLMNSLKPEDTAVYYCAARSYTYTAPIYGYWGQGTQVTVSS | high polyreactivity
11 | QVQLVESGGGLVQAGGSLRLSCAASGRTFVYYAMGWYRQAPGKERELVAAITSGGSTYYADSVKGRFTISRDNAKNTVYLQMNSLKPEDTAVYYCNKARVRGARFDYWGQGTQVTVSS | high polyreactivity
12 | QVQLVESGGGLVQAGGSLRLSCAASGSTLYAYAVGWYRQAPGKERELVAAIRTGGSTYYADSVKGRFTISRDNAKNTVYLQMNRLIPEDTAVYYCAADHGYQYGYWGQGTQVTVSS | low polyreactivity
13 | QDQLVDSGGGLLQAGGSLRLSCAASGSMLSTYAMGWYRQATGKERELVASISSIAGSTYYADSVKGRFTISRDNAMNTVYLQLNILKPEDNAVYYCNKVYGGGSYDYWGQGTQVTVSS | low polyreactivity
14 | QVQLVESGGGLVQAGGSLRLSCAASGSTFVYSAMGWYRQAPGKERELVAAIRNGDGTNYADSVKGRFTISRDNAMNTVYLQMNSLKPEDTAVYYCAAPQGEYFYVYEFDYWGQGTQVTVSS | low polyreactivity
15 | QVQLVESGGGLVQAGGSLRLSCAASGFIFYYYAMGWYRQAPGKERELVAAISWSGGRTYYADSVKGRFTISRDNAKNTVYLQMNSLKPEDTAVYYCAAVGYSKRYIYWGQGTQVTVSS | high polyreactivity
16 | QVQLVESGGGLDQAGGRLRLSCAASGRTYSVKSMGWYRQAPGKERELVAAITSGGSTYYADSVKGRFTISRDNAKNTVYLQMNSLKPEDTAVYYCNAVGRLRRSRLRMDYWGQGTQVTVSS | high polyreactivity
17 | QVQLVETGGGLVQAGGSHRLSCAASVRTLYKNAMGWYRQEPGKERELVAAISVSGGRTYYADSVKGRFTISRDNAKNTVYFQMNSLKPEDTAVYYCATRLYPISKYGYWGQGTQVTVSS | high polyreactivity
18 | QVQLVESGGGLVQAGGSLRLSCAASGSIFKSNAMGWYRQAPGKERELVAAISNGGITNYADSVKGRFTISRDNAKNTVFLQMNSLKPEDTAVYYCATSDVREIWVDYWGQGTQVTVSS | low polyreactivity
19 | QLQLVESGGGLVQAGGSLRLSCAASGSTFPLYAMGWYRQSPGKERELVASITTGGGNTYYADSVKGRFTISRDNAKNTVYLKMNSLKPEDTAVDYCAKPYHIGLSGRRTYDYWGQGTQVTVSS | high polyreactivity
20 | QVQLVESGGGLVQAGGSLRLSCAASGRTFPYNVMGGYRQAPGKERELVASNDGSGGSTYYADSVKGRFTISRDNAKKTVYLQMNSLKPEDTAVYYCAAVYYQSGNYWYSYLGQSPYDYWGQGTQVTVSS | low polyreactivity
21 | QVQLVESGGGLVQAGGSLRLSCAASGSISYEYAMGWYRPAPGKERELVASIDSDGAGTYYADSVKGRFTISRDNAKNTDYLQMNSLKPEDTAVYYCNAEWYYPYYYSRMDYWGQGTQVTVSS | low polyreactivity

Row | Sequence | polyreactivity (PSR sort gate)
22 | QVQLVESGGGLVQAGGSLSLSCAASGSTFYFNAMGWYRQAPGKERELVATIRSGDSTYYADSVKGRFTISRDNAKNTVYLQMNRLKPEDTAVYYCAAVSTYFSSTFTEYDYWGQGTQVTVST | low polyreactivity
23 | QVQLVESGGGLVQAGGSLRLSCAASGLIFTSYPMGWDRQAPGKERELVAAIDTSGGSTYYADSVKGRFTISRDNAKNTVYLQMNSLKPEDTAVYYCAATSTYRSYLEYDYWGQGTQVTVSS | low polyreactivity
24 | QVQLVESGGGLVQAGGSLRLSCAASGSIITGYAMGWYRQAPGKERELVAAITGNAGSTYYADSVKGRFTISRDNAKNTVYLQMNSLKPEDTAVYYCNARSWYVRGDYWGQGTQVTVSS | low polyreactivity
25 | QVQLVESGGGLVQAGGSLRLSCAASGSIIFSYAMGWYRQAPGKEREFVAAITGSGGSTYYADSVKGRFTISRDNAKNTVYLQMNSLKPEDTAVYYCARPQWRDWYGYWGQGTQVTVSS | low polyreactivity
26 | QVQLVESGGGLVQAGGSLRLSCAASGFTFSYYAMGWYRQAPGKERELVAAITKRGGRTYYADSVKGRFTISRDNAKNTVYLQMNSLKPEDTAVYYCAVQARNAFYRPAFDYWGQGTQVTVSS | high polyreactivity
27 | QVQLLESGGGLVQAGGSLRLSCAASGSIFGINAMGWYRQAPGKERELVAAISGSTSRTYYADSVKGRFTISRDNAKNTVYLQMNSLKPEDTAVYYCAVVGLRSVTRRSYYWGQGNQVTVSS | high polyreactivity
28 | GSTIYADSVKGRFTISRDNAKNTVYLQMNSLKPEDTAVYYCNKDDRNDRTIPGYDPEYDYWGQGTQVTVSS | low polyreactivity
29 | QVQLVESGGGLVQAGGSLRLSCAASGGIFKYYAMGWYRLAPGKERELVAAITSGGNTNYADSVKGRFTISRDNAKNTVYLQMNSLKPEDTAVYYCAARSISRRTWQYNYWGQGTQVTVSS | high polyreactivity
30 | QVQLVESGGGLVQAGGSLRLSCAASGIILAFNAMGWYRQAPGKEREFVASISQGGSSTYYADSVKGRFTISRDNAKNTVYLQMNSLKREDTAVYYCAARSSRVRSPYQRYYYWGQGTQVTVSS | high polyreactivity
31 | QVQLEESGGGLVQAGGSLRLSCAASGGIFYGYAMGWNRQAPGIERELVAAISDSGGSTYYADSVKGRFTISRDNAKNTVFLQLNSLNPEDTAVYYCATDARVGGYVSEGDFWGQGTQVTVSW | low polyreactivity
32 | QVQLVESGGGLVQAGGSLRLSCAASGSTLVRYALGLSRQAPGKERELVAAISRSGSSTYYADSVKGRFTISRDIAKNTVYLQMNSLKPEDTAVYYCATDRYPTTPYYNYRFGYWGQGTQVTVSS | high polyreactivity
33 | QVQLVESGGGLVQAGGSLRLSCAASGSIFWQYAMGWYRQAPGKERELVAAINWSGDTTYYADSVKGRFTISRDNAKNTVYLQMNSLKPEDTAVYFCAAVGGVSYGGSPKTHAGEDYWGQGTQVTVSS | low polyreactivity
34 | QVQLVESCGGLVQAGGSLRLSCAASGSTIVSNAMGWNRQAPGKERDLVAAITSGGTTNYADSVKGRFTISRDNAKNTVYLQMISLKPEETAVYYCAKRETVYYVNHPFTYSHDYCGQGTQVTVSS | low polyreactivity
35 | QVQHVESGGGLVQAGGSLRLSCAASGNIFAVYAKGWYRQAPGKERELVAAITTGTNTYADSVKGRFTISRDNAKNTVYLQMNSLKPEDTAVYYCAARYYRPLDYWGQGTQLTVSS | low polyreactivity
36 | QVQLVESGGGLVQAGGSLRLSCAASGRTFYNYAMGWYRQAPGKERELVAAIDWGSDSTYYADSVKGRFTISRDNAKNTVYLQMNSLKPEDTAVYYCAAYLVSVNSRTYDYWGQGTQVTVSS | low polyreactivity
37 | QVQLVESGGGLVQAGGSLRLSCAASGFIFGQNDMGWYRQAPGKERELVAAISSDGSTYYADSVKGRFTISRDNAKNTVYLQMNSLKPEDTAVYYCAAEYSWYYYYLYVGEYDYWGQGTQVTVSS | low polyreactivity
38 | QVQLVESGGRLVQAGGSLRLSCAASGSIFRSNAMGWYRQAPGKERELVATISSSTGSTYYADSVKGRFTISRDNAKNTVYLQMNSLKPEDTAVYNCAAVQPVKSSSGYHFWYYWGQGTQVTVSS | high polyreactivity
39 | QVQLVESGGGLVQAGGSLRLSCAASGRTFVIYDMGWYRQAHGKERELVAGITRSGGSTYADSVKGRFTISRDNAKNTVYLQMNSLKPEDTAVYYGARRKLYHKSPYDYWGQGTQVTVSS | low polyreactivity
40 | QVQLVESGGGLVQAGGSLRLSCAASGSTFNIYAMGCYRQSPGKERELVAAIRSGGSTYYADSVKGRFTISRDNAKNTVYLQMNSLKPEDTAVYYCGAAVKRALDYWGQGTQVTVSS | high polyreactivity
41 | QVQLEESGGGLDQAGGSLRLSCAASGRIFVFYAMGWYRQAPGKERELVAAITASSTRTYFADSVKGRFTISRDNAKNTVYLQMNSLKPEDTAVYYCAADRYYWGQGTQVTVSS | low polyreactivity

Reference: the nanobody polyreactivity screen of Harvey et al. (2022)
